Experiments:
[1] = molecular target: His6x-CutF, purified (Klebsiella pneumoniae) (UniProt A6T4Z5); assay: SEC; purified His6x-tagged core enzymes, alone and together, on the Superose 6 column
[2] = molecular target: cmcD (BMC-P shell protein) (Klebsiella pneumoniae); assay: cryo-EM structure; small type cmcABC′ + cmcD + CutC_(336–1128) BDPs (gel filtration 90-100 ml), 1 mg/ml in 100 mM NaCl, 20 mM Tris-HCl pH 8.0; pT = 4 icosahedral map at 3.3 Å

Substance	stoichiometry N [1]	stoichiometry N [2]
His6x-CutF, purified (from UniProt A6T4Z5 1-239) (enzyme)	4	
cmcD (BMC-P shell protein) (natural protein)		5
